Data on 3 substances can be found in US20110059159A1.

Where only a bound is given, the exact number is not on record here.

The target in experiment [1] is Chemokine Receptor 5 (CCR5) with an engineered 1D4 epitope at the C-terminal tail (UniProt P51681). Kind of experiment: sandwich ELISA, 2D7 capture, HRP-1D4 detection; CCR5 solubilised in 1% (w/v) DDM. (An ELISA detects its analyte on a solid surface through an enzyme-linked reagent.)
For experiment [2] the target is unchanged. Kind of experiment: sandwich ELISA, 2D7 capture, HRP-1D4 detection; CCR5 reconstituted into NABBs with POPC and zap1 (sample 7).
For experiment [3] the target is unchanged. Kind of experiment: cell-based or functional assay.
Experiment [4] concerns the target holotransducin (Gt) (bovine) (UniProt P04695). Kind of experiment: cell-based or functional assay.

Sequence of holotransducin (Gt) (bovine) (P04695 2-350, chain 1 of 3): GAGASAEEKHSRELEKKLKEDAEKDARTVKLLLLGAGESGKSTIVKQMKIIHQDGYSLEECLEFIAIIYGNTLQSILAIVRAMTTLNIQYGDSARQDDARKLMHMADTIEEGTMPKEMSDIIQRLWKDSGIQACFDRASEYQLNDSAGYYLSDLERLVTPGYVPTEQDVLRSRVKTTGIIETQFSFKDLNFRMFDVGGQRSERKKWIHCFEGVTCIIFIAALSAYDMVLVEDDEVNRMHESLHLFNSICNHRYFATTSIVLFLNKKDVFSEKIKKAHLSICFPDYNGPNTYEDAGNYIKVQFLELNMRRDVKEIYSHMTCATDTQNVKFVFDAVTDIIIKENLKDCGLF
Sequence of holotransducin (Gt) (bovine) (P62871 2-340, chain 2 of 3, further chain): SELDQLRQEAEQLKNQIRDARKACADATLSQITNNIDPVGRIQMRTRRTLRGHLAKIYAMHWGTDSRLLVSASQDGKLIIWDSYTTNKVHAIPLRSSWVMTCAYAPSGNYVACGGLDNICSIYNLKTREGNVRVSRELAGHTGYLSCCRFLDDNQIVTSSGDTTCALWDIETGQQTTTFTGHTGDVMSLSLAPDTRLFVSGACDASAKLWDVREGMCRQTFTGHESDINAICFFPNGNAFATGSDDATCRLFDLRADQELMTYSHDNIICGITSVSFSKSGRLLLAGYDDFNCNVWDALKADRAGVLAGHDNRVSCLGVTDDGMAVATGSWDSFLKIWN
Sequence of holotransducin (Gt) (bovine) (P02698 2-71, chain 3 of 3, further chain): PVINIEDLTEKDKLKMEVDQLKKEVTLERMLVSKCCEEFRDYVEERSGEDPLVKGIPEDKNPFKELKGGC

On to 2D7 antibody, for which the ELISA signal relative to sample 1 (% of sample 1) was 65 in experiment [1] and 92 in experiment [2]. In the case of “RANTES (from UniProt P13501 24-91) (ligand)”, the enhancement of B-GTPγS binding to the G protein in experiment [3] was less than 30%. As for “rhodopsin incorporated in NABBs (from UniProt P02699 1-348) (receptor)”, in experiment [4], the apparent pseudo first-order rate constant (kobs) of transducin activation, 1 rho-NABB was 0.006 s⁻¹ and the apparent pseudo first-order rate constant (kobs) of transducin activation, 2rho-NABB came out at 0.003 s⁻¹.
